Measured values published in US20060211610A1 (IPSEN PHARMA S A S, published 2006).
Non-standard residues stand in square brackets, D forms with d. Phe(3,4,5-F3) = N[C@@H](Cc1cc(F)c(F)c(F)c1)C(=O)O; Ac6c = NC1(C(=O)O)CCCCC1

What was measured:
[1] = biological target: T1, Y1 receptor (human), P25929
T1 chain: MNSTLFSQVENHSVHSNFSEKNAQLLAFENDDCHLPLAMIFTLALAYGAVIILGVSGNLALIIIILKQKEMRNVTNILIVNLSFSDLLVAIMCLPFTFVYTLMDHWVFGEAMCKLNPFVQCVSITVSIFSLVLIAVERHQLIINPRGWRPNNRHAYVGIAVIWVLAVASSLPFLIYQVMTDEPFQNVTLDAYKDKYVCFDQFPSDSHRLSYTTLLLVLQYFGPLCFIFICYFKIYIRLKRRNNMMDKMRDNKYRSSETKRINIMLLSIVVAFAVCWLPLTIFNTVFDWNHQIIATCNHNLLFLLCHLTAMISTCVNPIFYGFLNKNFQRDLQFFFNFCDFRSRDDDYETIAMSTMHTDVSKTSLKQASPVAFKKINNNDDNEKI

[2] = biological target: T2, Y2 receptor (human), P49146
T2 chain: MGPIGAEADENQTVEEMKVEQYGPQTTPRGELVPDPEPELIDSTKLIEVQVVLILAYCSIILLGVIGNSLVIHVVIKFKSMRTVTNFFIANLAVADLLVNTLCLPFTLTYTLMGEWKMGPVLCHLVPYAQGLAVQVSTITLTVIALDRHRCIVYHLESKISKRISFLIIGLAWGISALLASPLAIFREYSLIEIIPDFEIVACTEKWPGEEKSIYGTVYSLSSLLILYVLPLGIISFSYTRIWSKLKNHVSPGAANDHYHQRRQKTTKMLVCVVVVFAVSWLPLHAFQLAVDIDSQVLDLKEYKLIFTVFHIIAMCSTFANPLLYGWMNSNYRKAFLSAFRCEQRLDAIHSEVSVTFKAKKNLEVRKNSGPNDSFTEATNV

Y2 receptor = biological target: T3, Y2 receptor (human, UniProt P49146 1-381); test: radioligand competition against [125I]PYY(3-36), SK-N-BE2 membranes, Cheng-Prusoff
T3 construct: whole, on cells; Assayed as membrane homogenates of SK-N-BE2 cells, not intact cells
T3 sequence (looked up): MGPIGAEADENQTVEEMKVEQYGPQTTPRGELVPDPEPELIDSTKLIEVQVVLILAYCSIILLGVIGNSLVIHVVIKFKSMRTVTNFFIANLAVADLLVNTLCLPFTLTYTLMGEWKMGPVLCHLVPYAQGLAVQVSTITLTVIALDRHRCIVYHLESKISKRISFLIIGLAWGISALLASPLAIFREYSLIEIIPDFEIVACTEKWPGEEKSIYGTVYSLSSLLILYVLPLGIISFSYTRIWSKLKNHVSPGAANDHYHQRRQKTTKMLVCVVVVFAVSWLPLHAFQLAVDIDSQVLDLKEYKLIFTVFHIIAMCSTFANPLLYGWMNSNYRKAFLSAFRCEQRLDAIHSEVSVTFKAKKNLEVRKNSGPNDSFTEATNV
Description: (§1) The final pellets were resuspended in approximately 20 ml of 50 mM Tris-HCl containing 5.0 mM MgCl₂, 0.1 mg/ml bacitracin, and 0.1% BSA (Buffer B), and held on ice for the receptor binding assay.
(§2) For assay, aliquots (0.4 ml) of the foregoing suspensions were incubated with 0.05 ml of 0.05 nM [¹²⁵I-Leu³¹, Pro³⁴]PYY (Y1 receptor) or [¹²⁵I]PYY(3-36) (Y2 receptor), (each ˜2200 Ci/mmol, New England Nuclear) in Buffer B, with or without 0.05 ml a solution (ranging from 0.01 nM -1000 nM) of an unlabeled competing peptide. After a 120 min incubation (25° C.), the bound radioligand was separated from the free by rapid filtration through GF/C filters, previously soaked in 0.3% polyethyleneimine. […] Inhibition constants (K₁,) were calculated using the well-known Cheng-Prusoff equation.

Y1 receptor = biological target: T4, Y1 receptor (human, UniProt P25929 1-384); test: radioligand competition against [125I-Leu31,Pro34]PYY, SK-N-MC membranes, Cheng-Prusoff
T4 construct: whole, on cells; Assayed as membrane homogenates of SK-N-MC cells, not intact cells; also called NPY Y1
T4 sequence (looked up): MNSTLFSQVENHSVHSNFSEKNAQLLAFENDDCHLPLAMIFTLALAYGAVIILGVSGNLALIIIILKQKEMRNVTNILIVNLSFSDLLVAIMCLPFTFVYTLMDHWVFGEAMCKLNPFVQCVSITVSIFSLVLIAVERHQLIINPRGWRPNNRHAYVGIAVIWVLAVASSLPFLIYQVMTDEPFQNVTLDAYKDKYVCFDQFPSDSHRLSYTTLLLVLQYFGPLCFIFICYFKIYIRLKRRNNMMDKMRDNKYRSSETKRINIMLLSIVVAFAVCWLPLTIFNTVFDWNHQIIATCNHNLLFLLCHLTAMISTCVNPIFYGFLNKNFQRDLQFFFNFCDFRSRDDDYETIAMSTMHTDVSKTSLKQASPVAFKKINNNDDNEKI
Description: as §1, §2

| Binder | Ki [1] | Ki [2] | Ki (Y2 receptor) | Ki (Y1 receptor) |
| --- | --- | --- | --- | --- |
| Ac-ASLRH[Phe(3,4,5-F3)]LNLVTRQRY-NH2 (SMILES CC(=O)N[C@@H](C)C(=O)N[C@@H](CO)C(=O)N[C@@H](CC(C)C)C(=O)N[C@@H](CCCNC(=N)N)C(=O)N[C@@H](Cc1c[nH]cn1)C(=O)N[C@@H](Cc1cc(F)c(F)c(F)c1)C(=O)N[C@@H](CC(C)C)C(=O)N[C@@H](CC(N)=O)C(=O)N[C@@H](CC(C)C)C(=O)N[C@H](C(=O)N[C@H](C(=O)N[C@@H](CCCNC(=N)N)C(=O)N[C@@H](CCC(N)=O)C(=O)N[C@@H](CCCNC(=N)N)C(=O)N[C@@H](Cc1ccc(O)cc1)C(N)=O)[C@@H](C)O)C(C)C) [Ac-[(3,4,5-F)Phe^27]hPYY(22-36)NH2] | < 2000 nM | < 1000 nM | – | – |
| Ac-LRHY[Ac6c]NLLTRQRY-NH2 (SMILES CC(=O)N[C@@H](CC(C)C)C(=O)N[C@@H](CCCNC(=N)N)C(=O)N[C@@H](Cc1c[nH]cn1)C(=O)N[C@@H](Cc1ccc(O)cc1)C(=O)NC1(C(=O)N[C@@H](CC(N)=O)C(=O)N[C@@H](CC(C)C)C(=O)N[C@@H](CC(C)C)C(=O)N[C@H](C(=O)N[C@@H](CCCNC(=N)N)C(=O)N[C@@H](CCC(N)=O)C(=O)N[C@@H](CCCNC(=N)N)C(=O)N[C@@H](Cc2ccc(O)cc2)C(N)=O)[C@@H](C)O)CCCCC1, Also carries Leu at 31 (residue 8 of the peptide), already in the entry) [Ac-[A6C^28, Leu^31]hPYY(24-36)NH2] | – | – | < 1000 nM | < 2000 nM |
| Ac-LRHYLNL[Ac6c]TRQRY-NH2 (SMILES CC(=O)N[C@@H](CC(C)C)C(=O)N[C@@H](CCCNC(=N)N)C(=O)N[C@@H](Cc1c[nH]cn1)C(=O)N[C@@H](Cc1ccc(O)cc1)C(=O)N[C@@H](CC(C)C)C(=O)N[C@@H](CC(N)=O)C(=O)N[C@@H](CC(C)C)C(=O)NC1(C(=O)N[C@H](C(=O)N[C@@H](CCCNC(=N)N)C(=O)N[C@@H](CCC(N)=O)C(=O)N[C@@H](CCCNC(=N)N)C(=O)N[C@@H](Cc2ccc(O)cc2)C(N)=O)[C@@H](C)O)CCCCC1, Synthetic analog of human PYY(24-36)) [Ac-[A6C^31]hPYY(24-36)NH2] | – | – | < 1000 nM | < 2000 nM |
